Reference: US20130203167

Target: WDR5-RbBP5-Ash2L subcomplex (UniProt P61964)

MLL^3745(R3765A)
H3K4 dimethylation activity of the MLL1 core complex (MALDI-TOF mass spectrometry): a loss of H3K4 dimethylation activity of the MLL1 core complex when Arg-3765 of the MLL1 component is replaced by an alanine
